Source: patent CN110713539A

Target: CEA抗原 (癌胚抗原, Carcinoembrynio Antigen), soluble antigen (UniProt P06731)
Assay: SPR (Biacore), antibody immobilised on chip, antigen in solution, 1:1 binding

Sequence of UniProt P06731 (P06731 35-685 limits assumed): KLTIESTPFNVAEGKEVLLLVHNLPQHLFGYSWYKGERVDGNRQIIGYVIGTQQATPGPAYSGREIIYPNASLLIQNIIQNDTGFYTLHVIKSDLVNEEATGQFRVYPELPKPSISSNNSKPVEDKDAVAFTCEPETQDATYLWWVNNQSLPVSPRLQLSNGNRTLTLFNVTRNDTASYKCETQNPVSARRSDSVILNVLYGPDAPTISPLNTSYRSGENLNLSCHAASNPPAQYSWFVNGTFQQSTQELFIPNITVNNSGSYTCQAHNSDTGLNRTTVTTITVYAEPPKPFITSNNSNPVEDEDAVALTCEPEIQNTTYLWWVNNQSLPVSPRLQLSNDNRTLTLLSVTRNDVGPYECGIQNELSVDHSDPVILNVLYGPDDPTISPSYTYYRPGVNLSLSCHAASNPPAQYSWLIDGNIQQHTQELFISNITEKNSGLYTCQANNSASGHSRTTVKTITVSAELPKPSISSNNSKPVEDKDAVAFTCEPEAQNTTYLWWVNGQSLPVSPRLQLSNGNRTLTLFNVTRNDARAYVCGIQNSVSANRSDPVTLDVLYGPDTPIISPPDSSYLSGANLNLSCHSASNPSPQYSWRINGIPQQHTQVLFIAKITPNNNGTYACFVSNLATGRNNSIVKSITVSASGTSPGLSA

Kd: 43.1 nM
koff: 0.0111 s⁻¹
kon: 259000 M⁻¹ s⁻¹
B1: OLD-2ND-3-H6-scFv-mIgG1 (Fc fusion, part only; not given: linker and mouse Fc tag, not shown: a dimerising Fc or GST)
chain, part: ETTLTQSPGTLSLSPGERATLSCRASQSVNNNFLGWYQQRVGQAPRLLIYGASSRATGIPDRFSGSGSGTDFTLTISRLEPEDFAVYYCQQYGSSPLTFGGGTKVEIKMAQVQLQESGGGSVQPGGSLRLSCAASGFTFSSYAMSWVRQAPGKGLEWVSHISGSGGNTYYADSVKGRFTISRDNSKNTLYLQMNSLRAEDTAVYYCAKSWGSSNYGTFDIWGQGTVVTVSS
